Like-named read-outs stand apart in the source and are kept apart here.
Experiments:
[1] = molecular target: T1, Tag2-CD47 (UniProt Q08722 19-139); test: HTRF blocking assay, ratio 665 nm/615 nm; blocked ligand: Tag1-SIRP-α binding to Tag2-CD47
T1 construct: Tagged reagent of the HTRF assay; also called CD47 (HTRF assay)
Source text: (§1) To evaluate the activities of humanized anti-huCD47 mAbs on blocking SIRP-α interaction, the HTRF assay was employed. The interaction between Tag1-SIRP-α and Tag2-CD47 was detected by using anti-Tag1-Terbium (HTRF donor) and anti-Tag2-XL665 (HTRF acceptor). When the donor and acceptor antibodies were brought into close proximity due to SIRP-α and CD47 binding, excitation of the donor antibody triggers fluorescent resonance energy transfer (FRET) towards the acceptor antibody, which in turn emitted specifically at 665 nm. This specific signal is directly proportional to the extent of CD47/SIRP-α interaction. Thus, a molecule blocking CD47/SIRP-α interaction would cause a reduction in HTRF signal.
Anti-CD47 antibodies B5711, B5712, B5713, B5714, B5715, and B5716 were evaluated on their activities in blocking the interaction of CD47 and SIRP-α.

[2] = molecular target: T2, cyno CD47-His protein (cynomolgus, UniProt A0A2K5X523 19-139); test: ELISA on cyno CD47-His protein, OD 450nm [Cont'd) B]
T2 construct: also called cynomolgus CD47; not shown: His tag

[3] = molecular target: T3, human CD47-His protein (human, UniProt Q08722 19-139); test: SPR (Biacore T200) full kinetics, antibody captured on protein A chip, serial dilution of human CD47-his injected
T3 construct: Recombinant human CD47 with His tag; also called human CD47-his tag protein; CD47 antigen; not shown: His tag
T3 sequence (Q08722 19-139 limits assumed): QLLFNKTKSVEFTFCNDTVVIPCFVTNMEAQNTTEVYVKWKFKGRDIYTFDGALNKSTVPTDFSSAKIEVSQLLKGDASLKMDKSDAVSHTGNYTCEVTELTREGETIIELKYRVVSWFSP
Procedure: The binding of the humanized antibodies to recombinant CD47 protein (human CD47-his tag) was tested by BIACORE™ using a capture method. B5712 and B5715 mAbs were captured using protein A chip. A serial dilution of human CD47-his tag protein was injected over captured antibody for 120s at a flow rate of […]. The antigen was allowed to dissociate for 600s. All the experiments were carried out on a Biacore T200.

[4] = molecular target: T3, human CD47-His protein; test: SPR (Biacore) affinity ranking, antibody captured on protein A chip, 5 nM human CD47-his injected
Procedure: (§2) To explore the binding kinetics of the humanized antibody, this example performed the affinity ranking using biacore. B5711, B5712, B5713, B5714, B5715 and B5716 mAbs were captured using protein A chip. 5 nM of human CD47-his tag protein was injected over captured antibodies for 120s at a flow rate of 30 μL/min. The antigen was allowed to dissociate for 130s.

[5] = molecular target: T3, human CD47-His protein; test: ELISA on human CD47-His protein, OD 450nm
[6] = molecular target: T3, human CD47-His protein; test: ELISA, purified antibody titrated on CD47-His protein, OD 450nm
[7] = molecular target: T1, Tag2-CD47; test: HTRF blocking assay, ratio 665 nm/615 nm; blocked ligand: Tag1-SIRP-α binding to Tag2-CD47; remark: listed apart in the source
Source text: as §1, with “To further” for “To”, “functions” for “activities”, “the mouse” for “humanized”, “triggered” for “triggers”, “emits” for “emitted”
G08 and H06 antibodies were evaluated for their activity to blocking the interaction of CD47 and SIRP-α.

[8] = molecular target: T3, human CD47-His protein; test: SPR (Biacore) affinity ranking, antibody captured on protein A chip, 5 nM human CD47-his injected; affinity ranking, single 5 nM injection of human CD47-his, 130s dissociation
Procedure: as §2

T1 sequence (Q08722 19-139): as the sequence (Q08722 19-139 limits assumed) above

Row | Binder | IC50 [1] [nM] | EC50 [2] [ng/mL] | Kd [3] [nM] | koff [3] [s⁻¹] | kon [3] [M⁻¹ s⁻¹] | Kd [4] [nM] | koff [4] [s⁻¹] | kon [4] [M⁻¹ s⁻¹] | EC50 [5] [ng/mL] | EC50 [6] [ng/mL] | IC50 [7] [nM] | kon [8] [M⁻¹ s⁻¹]
1 | B5712 (antibody, V domains shown, Humanized; also called HSP206A-CDRG) VH: QVQLVQSGAEVKKPGASVKVSCKASGDTFTDYYINWVRQAPGQGLEWMGWIYTGSGNTKYNEKFKGRVTMTRDTSISTAYMELSRLRSDDTAVYYCARYNPLITAVVPDYWGQGTTVTVSS VL: not shown | 0.16 | 10.2 | 0.847 | 0.00128 | 1.51e+06 | 1.28 | 0.00276 | 2.15e+06 | 5.35 | – | – | –
2 | B5713 (antibody, V domains shown, Humanized) VH: QIQLVQSGAEVKKPGASVKVSCKASGDTFTDYYINWVRQAPGQGLEWMGWIYTGSGNTKYNEKFKGRVTMTVDTSISTAYMELSRLRSDDTAVYYCARYNPLITAVVPDYWGQGTTVTVSS VL: not shown | 0.21 | 9.5 | – | – | – | 1 | 0.00353 | 3.53e+06 | 7.6 | – | – | –
3 | B5715 (antibody, V domains shown, Humanized; also called HSP206B-CDRG) VH: QVQLVQSGAEVKKPGASVKVSCKASGYTFTDYYINWVRQAPGQGLEWMGWIYPGSANTKYSEKVKGRVTMTRDTSISTAYMELSRLRSDDTAVYYCARNDPLITAVVPDYWGQGTTVTVSS VL: not shown | 0.16 | 9.23 | 0.56 | 0.000287 | 513000 | 0.979 | 0.00234 | 2.39e+06 | 7.09 | – | – | –
4 | G08 antibody (antibody, V domains shown, Mouse variable domains from a Fab phage library of immunized mice; also called G08 clone; mAb G08) VH: QIQLQQSGPELVKPGASVKISCKASGDTFTDYYINWVKQKPGQGLEWIGWIYTGSGNTKYNEKFKGKTTLTVDTSSSTAYMQLNSLTSEDTAVYFCARYNPLITAVVPDYWGQGTTLTVSS VL: not shown | – | – | – | – | – | – | – | – | – | 5.93 | 0.27 | –
5 | B5711 (antibody, V domains shown, Expressed in 293F cells, purified by protein G) VH: QIQLQQSGPELVKPGASVKISCKASGDTFTDYYINWVKQKPGQGLEWIGWIYTGSGNTKYNEKFKGKTTLTVDTSSSTAYMQLNSLTSEDTAVYFCARYNPLITAVVPDYWGQGTTLTVSS VL: not shown | 0.17 | 7.95 | – | – | – | 0.819 | 0.00383 | – | 4.96 | – | – | 4.67e+06
6 | B5714 (antibody, V domains shown) VH: QIQLQQSGPELVKPGASVKISCKASGYTFTDYYINWVKQKPGQGPEWIGWIYPGSANTKYSEKVKGKATLTVDTSSTTAYMQLSSLTSDDTAVYFCTRNDPLITAVVPDYWGQGTTLTVSS VL: DIVMSQSPSSLAVSVGEKVTMSCRSSQSRLYSSNQKNYLAWYQQKPGQSPKLLIYWASTRESGVPDRFTGSGSGTDFTLTISSVKAEDLAVYYCQQYYNYPPTFGGGTKLEIK | 0.14 | 8.45 | – | – | – | 1.54 | 0.00291 | 1.89e+06 | 6.49 | – | – | –
7 | H06 antibody (antibody, V domains shown, Mouse variable domains from a Fab phage library of immunized mice; also called H06 clone; mAb H06) VH: QIQLQQSGPELVKPGASVKISCKASGYTFTDYYINWVKQKPGQGPEWIGWIYPGSANTKYSEKVKGKATLTVDTSSTTAYMQLSSLTSDDTAVYFCTRNDPLITAVVPDYWGQGTTLTVSS VL: DIVMSQSPSSLAVSVGEKVTMSCRSSQSRLYSSNQKNYLAWYQQKPGQSPKLLIYWASTRESGVPDRFTGSGSGTDFTLTISSVKAEDLAVYYCQQYYNYPPTFGGGTKLEIK | – | – | – | – | – | – | – | – | – | 5.39 | 0.21 | –
8 | B5716 (antibody, V domains shown, Humanized) VH: QIQLVQSGAEVKKPGASVKVSCKASGYTFTDYYINWVRQAPGQGLEWMGWIYPGSANTKYSEKVKGRVTMTVDTSITTAYMELSRLRSDDTAVYYCTRNDPLITAVVPDYWGQGTTVTVSS VL: not shown | 0.138 | 9.79 | – | – | – | 0.547 | 0.00452 | 8.26e+06 | 11.5 | – | – | –
